As a reminder, the Kd is the equilibrium constant for the complex coming apart. Low readings indicate higher affinity, high ones lower affinity.

This passage reports Kd results from PMC11538452.

The target of the test is A9 anti-CD40 antibody, deimmunized variant. The experiment in a line: SPR; wildtype against deimmunized variant on the CD40 protein (Supplementary Fig. 3B); format of this experiment not told in what was shown. (In general: SPR reads the build-up and loss of mass on a sensor chip optically.)

Sequence of human CD40-Fc (P25942 21-193): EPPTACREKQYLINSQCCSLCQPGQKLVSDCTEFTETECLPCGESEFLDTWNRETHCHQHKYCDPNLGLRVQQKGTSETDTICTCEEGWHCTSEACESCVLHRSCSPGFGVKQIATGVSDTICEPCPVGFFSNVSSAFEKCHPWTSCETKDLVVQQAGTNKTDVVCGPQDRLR

“human CD40-Fc (from UniProt P25942 21-193) (Fc fusion)” displayed a Kd of 1.6 nM.
